Experimental findings from patent US20150210994A1 (CHILDREN S HOSPITAL OF PHILADELPHIA, published 2015) are described below.

Assay [1] addresses soluble mouse EPCR (mouse) (UniProt Q64695). The assay is described as follows: isothermal titration calorimetry, soluble murine EPCR.
For assay [2], the target named is mouse endothelial protein C receptor (mEPCR), full-length, on CHO-K1 cells (mouse) (UniProt Q64695). The assay is described as follows: saturation binding on CHO-K1 cells with mEPCR, 10 to 1000 nM ligand; bound material eluted and quantified by western blot; binding to CHO-K1 cells without mEPCR subtracted; fit of bound against ligand concentration.
For the next assay, the target named is T1, Human FVIIa (NovoSeven) (human, UniProt P08709 61-466).
T1 construct: mature
T1 sequence (looked up): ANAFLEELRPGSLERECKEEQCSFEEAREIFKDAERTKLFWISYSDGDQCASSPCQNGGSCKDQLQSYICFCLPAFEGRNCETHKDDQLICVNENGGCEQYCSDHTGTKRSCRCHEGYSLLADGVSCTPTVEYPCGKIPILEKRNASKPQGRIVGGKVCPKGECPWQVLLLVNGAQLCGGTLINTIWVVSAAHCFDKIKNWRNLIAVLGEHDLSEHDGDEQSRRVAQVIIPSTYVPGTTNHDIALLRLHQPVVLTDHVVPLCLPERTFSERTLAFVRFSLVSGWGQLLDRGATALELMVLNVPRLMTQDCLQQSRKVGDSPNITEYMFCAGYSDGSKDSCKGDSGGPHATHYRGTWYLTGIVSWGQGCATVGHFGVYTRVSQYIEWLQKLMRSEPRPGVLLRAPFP
The assay is described as follows: CHO-K1 cells expressing human EPCR, western blot of bound fraction. On the procedure: (§1) FIG. 2A: Scheme for determining and quantifying binding of proteins to surface exposed mouse EPCR (mEPCR). The protein whose mEPCR binding is under investigation is added onto CHO-K1 cells expressing mEPCR (mEPCR+ve) or not (mEPCR−ve). Binding is done in the presence of physiological concentration of calcium and magnesium (1.6 mM and 0.6 mM, respectively). Following washing, the bound material is eluted with EDTA (10 mM). The bound, unbound and a portion of total loaded material are then subjected to polyacrylamide gel electrophoresis, transferred to nitrocellulose and detected by western blotting using protein-specific antibodies. FIG. 2B: Human plasma-derived protein C (hPC) or murine PC (mPC) that are known ligands for murine EPCR, were incubated with CHO-KI cells with or without murine EPCR expression. […] A variant mFVIIa bearing part of the mPC Gla domain ([1-11 mPC)-mFVIIa) restored binding of this chimeric molecule to murine EPCR.
(§2) FIG. 12. Binding of variants of human activated FVII with amino acid changes at position 8 (normally a Leucine). Conditioned medium from transient transfection was added on CHO-K1 cells expressing human EPCR, as described in FIG. 2. […] Following the wash of unbound material, the bound fraction was visualized by western blotting (shown in the bottom image). […] Human FVIIa (NovoSeven) is shown as a control for positive binding. […]

Assay [3] concerns the target T2, wildtype human FVIIa (Leu at position 8), PACE/furin construct (human, UniProt P08709 61-466).
T2 construct: mature; Tested as conditioned medium from transiently transfected HEK-293 cells
T2 sequence (looked up): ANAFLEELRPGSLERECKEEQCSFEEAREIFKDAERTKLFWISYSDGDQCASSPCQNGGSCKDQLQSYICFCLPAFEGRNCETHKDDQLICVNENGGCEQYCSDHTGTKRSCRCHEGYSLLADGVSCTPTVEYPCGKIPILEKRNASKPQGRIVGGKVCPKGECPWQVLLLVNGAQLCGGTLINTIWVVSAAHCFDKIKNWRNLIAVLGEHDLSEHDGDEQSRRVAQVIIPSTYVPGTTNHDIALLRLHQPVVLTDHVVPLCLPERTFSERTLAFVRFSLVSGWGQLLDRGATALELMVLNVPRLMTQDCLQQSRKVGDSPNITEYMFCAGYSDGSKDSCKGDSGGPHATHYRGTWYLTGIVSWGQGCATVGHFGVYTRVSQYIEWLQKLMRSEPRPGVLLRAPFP
The assay is described as follows: conditioned medium on CHO-K1 cells expressing human EPCR, western blot of bound fraction. On the procedure: as §1, §2

For assay [4], the target named is human plasma-derived protein C (hPC) (human, UniProt P04070 43-461). Kind of assay: CHO-K1 cells with or without murine EPCR, EDTA elution, western blot. On the procedure:
as §1

Another assay addresses T3, mPC F4L (mouse, UniProt P33587 42-460).
T3 construct: Tested as HEK-293 supernatant after transient expression; Position 4 is counted on the mature polypeptide; also called mouse PC Phe4 to Leu
T3 sequence (looked up): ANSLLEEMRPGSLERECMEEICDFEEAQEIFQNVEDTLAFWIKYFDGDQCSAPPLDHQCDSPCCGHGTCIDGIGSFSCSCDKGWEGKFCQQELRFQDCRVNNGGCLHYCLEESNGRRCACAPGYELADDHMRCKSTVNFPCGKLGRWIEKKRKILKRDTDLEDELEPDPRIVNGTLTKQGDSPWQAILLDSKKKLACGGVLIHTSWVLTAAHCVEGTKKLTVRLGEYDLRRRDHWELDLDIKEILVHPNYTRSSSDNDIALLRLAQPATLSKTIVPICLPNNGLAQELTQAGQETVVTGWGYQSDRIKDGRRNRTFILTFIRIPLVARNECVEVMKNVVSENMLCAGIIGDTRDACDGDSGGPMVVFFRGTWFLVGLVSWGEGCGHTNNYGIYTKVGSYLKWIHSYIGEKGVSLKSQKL
Kind of assay: HEK-293 supernatant on CHO-K1 cells with or without mEPCR, western blot. On the procedure: as §1, with “The” for “FIG. 2A: Scheme for determining and quantifying binding of proteins to surface exposed mouse EPCR (mEPCR). The”
(§3) FIG. 4A: The Gla domain of the (1-11 mPC)-mFVIIa is shown. The blue box represents the first 11 amino acids of the mouse PC (mPC) Gla domain, whereas the red box represents the portion of the Gla domain of mouse FVIIa. […] Individual mutations were performed to change one amino acid in mFVIIa with the corresponding in (1-11 mPC)-mFVIIa. Following transient expression in HEK-293 cells, supernatant with each protein was incubated with CHO-K1 cells with or without expression of the mouse EPCR receptor. […] From top to bottom, sequences are SEQ ID NOs: 1-5. […]

For another assay, the target named is T4, murine protein C (mPC) (mouse, UniProt P33587 42-460).
T4 construct: also called mouse PC; mouse protein C
T4 sequence (looked up): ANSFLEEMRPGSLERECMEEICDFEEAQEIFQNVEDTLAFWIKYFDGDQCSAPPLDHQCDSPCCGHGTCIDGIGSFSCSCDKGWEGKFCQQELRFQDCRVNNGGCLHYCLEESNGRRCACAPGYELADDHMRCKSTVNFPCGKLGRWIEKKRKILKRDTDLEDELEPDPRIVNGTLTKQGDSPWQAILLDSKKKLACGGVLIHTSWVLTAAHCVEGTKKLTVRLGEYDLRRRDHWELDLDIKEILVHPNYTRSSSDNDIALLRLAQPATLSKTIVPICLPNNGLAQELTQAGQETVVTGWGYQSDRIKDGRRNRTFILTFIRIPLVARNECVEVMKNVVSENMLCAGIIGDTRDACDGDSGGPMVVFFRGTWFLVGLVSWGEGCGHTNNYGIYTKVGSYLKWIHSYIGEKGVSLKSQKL
Kind of assay: HEK-293 supernatant on CHO-K1 cells with or without mouse EPCR, western blot of the bound fraction. On the procedure:
as §1, with “The” for “FIG. 2A: Scheme for determining and quantifying binding of proteins to surface exposed mouse EPCR (mEPCR). The”
as §3

The target in a further assay is T5, mouse FVIIa (mFVIIa) (mouse, UniProt P70375 42-446).
T5 construct: mature; Recombinant; Has a Gla domain; also called mF7a
T5 sequence (looked up): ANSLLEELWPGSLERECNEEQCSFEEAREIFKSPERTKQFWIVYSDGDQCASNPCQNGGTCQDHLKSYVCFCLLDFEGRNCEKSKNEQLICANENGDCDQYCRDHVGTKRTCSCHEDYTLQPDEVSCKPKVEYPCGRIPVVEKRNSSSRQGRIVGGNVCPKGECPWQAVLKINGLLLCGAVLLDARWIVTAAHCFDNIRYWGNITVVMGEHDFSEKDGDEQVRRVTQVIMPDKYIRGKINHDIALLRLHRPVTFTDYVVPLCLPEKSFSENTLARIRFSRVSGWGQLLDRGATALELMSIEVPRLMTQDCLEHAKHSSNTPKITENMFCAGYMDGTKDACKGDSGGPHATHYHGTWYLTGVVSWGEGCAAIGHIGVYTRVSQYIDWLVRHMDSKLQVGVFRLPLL
The assay is described as follows: saturation binding on CHO-K1 cells with mEPCR, 10 to 1000 nM ligand; bound material eluted and quantified by western blot; binding to CHO-K1 cells without mEPCR subtracted; fit of bound against ligand concentration. On the procedure: as §1
FIG. 7. Increasing concentration of ligand (mFVIIa or [1-11 mPC]-mFVIIa) was incubated with CHO-K1 cells without mEPCR (−mEPCR) or with mEPCR (+mEPCR). The experimental strategy described in Example I was followed and bound material was visualized. Following subtraction of non-specific binding (material incubated on CHO-K1[-]mEPCR cells), corrected amount of bound material (nM per 10⁶ cells) was plotted vs. concentration of ligand (nM). […]

human plasma-derived protein C (hPC), sequence (P04070 43-461): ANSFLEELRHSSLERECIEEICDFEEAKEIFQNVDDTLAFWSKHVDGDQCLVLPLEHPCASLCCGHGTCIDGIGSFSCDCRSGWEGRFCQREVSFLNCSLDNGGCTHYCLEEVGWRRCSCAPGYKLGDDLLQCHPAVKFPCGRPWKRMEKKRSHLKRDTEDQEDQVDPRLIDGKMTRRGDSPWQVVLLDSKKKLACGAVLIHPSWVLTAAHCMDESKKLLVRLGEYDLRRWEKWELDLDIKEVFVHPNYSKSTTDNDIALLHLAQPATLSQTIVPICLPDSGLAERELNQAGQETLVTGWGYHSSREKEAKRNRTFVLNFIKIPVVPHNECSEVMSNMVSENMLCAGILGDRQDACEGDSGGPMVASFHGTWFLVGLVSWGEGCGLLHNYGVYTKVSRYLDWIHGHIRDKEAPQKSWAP

As to “(1-11 mPC)-mFVIIa (from UniProt P70375 42-446) (enzyme)”, the Kd stood at 480 nM in assay [1] and 340 nM in assay [2].

B1: human EPCR on CHO-K1 cells (receptor, UniProt Q9UNN8 18-238, looked up)
chain: SQDASDGLQRLHMLQISYFRDPYHVWYQGNASLGGHLTHVLEGPDTNTTIIQLQPLQEPESWARTQSGLQSYLLQFHGLVRLVHQERTLAFPLTIRCFLGCELPPEGSRAHVFFEVAVNGSSFVSFRPERALWQADTQVTSGVVTFTLQQLNAYNRTRYELREFLEDTCVQYVQKHISAENTKGSQTSRSYTSLVLGVLVGSFIIAGVAVGIFLCTGGRRC
notes: whole, on cells; also called hEPCR
For the molecule B1, the binding result (with Human FVIIa (NovoSeven); in assay [3]) was “binds” throughout.

B2: mouse endothelial protein C receptor (mEPCR), full-length, on CHO-K1 cells (receptor, UniProt Q64695 18-242, looked up)
chain: LCNSDGSQSLHMLQISYFQDNHHVRHQGNASLGKLLTHTLEGPSQNVTILQLQPWQDPESWERTESGLQIYLTQFESLVKLVYRERKENVFFPLTVSCSLGCELPEEEEEGSEPHVFFDVAVNGSAFVSFRPKTAVWVSGSQEPSKAANFTLKQLNAYNRTRYELQEFLQDTCVEFLENHITTQNMKGSQTGRSYTSLVLGILMGCFIIAGVAVGIFMCTSGRRC
notes: whole, on cells; also called murine EPCR; mouse EPCR
For the molecule B2, the values for the binding result (in assay [4]; in the assay with mPC F4L; with murine protein C (mPC)) were “binds”, “no binding” and “binds”, respectively. In the assay with mouse FVIIa (mFVIIa), this molecule showed a Kd of 10.6 µM.
